This experiment has as its target HA-bromoTAG-PPM1H.

The substance FLAG-dTAG-SMAD3 registered a decrease in tail phosphorylation of dTAG-SMAD3 by immunoblot in U2OS cells co-expressing both, 2 h TGF-β with BDPIC 0.1-10 μM against DMSO of 50%.

These data come from publication PMC11298613.
